Assays:
HIV-1ADA = assay: HIV-1 replication in monocyte-derived macrophage cultures (RT activity); assay type: cell-based; conditions: recombinant MIF 50 ng/ml
Experimental: (§1) Triplicate cultures of monocyte-derived macrophages were infected with HIV-1ADA in the presence of anti-MIF MAb (25 μg/ml) or isotype control. Virus replication was monitored by RT activity in culture supernatants. Results are presented as mean±SD. […] Control cultures were cultivated with PMB mixed with an isotype immunoglobulin with or without MIF.
as §1, with “To investigate this possibility, HIV-infected macrophages were cultured in the presence of a neutralizing anti-MIF antibody or isotype control. Triplicate” for “Triplicate”, “supernatants.” for “supernatants. Results are presented as mean±SD.”

[1] = test system: murine bone marrow progenitor cultures; assay: BFU-E and CFU-E erythropoietin-dependent progenitor colony assays; assay type: cell-based; conditions: 10-100 ng/ml MIF, 1-20 ng/ml TNFα, or 10-100 U/ml IFNγ
Experimental: Bone marrow cells were harvested, plated in a methylcellulose-based medium, and colony numbers scored after the addition of murine cytokines. Individual assays were performed in duplicate, and the data shown is a compilation of 3-6 independently performed experiments. % inhibition of colony formation is calculated with reference to a cytokine-minus control. All values shown are the mean±SD and are significant when compared to wells with no cytokine addition (P<0.05). CFU-E: colony forming unit—erythroid; BFU-E: burst-forming unit—erythroid.
The two inflammatory cytokines, TNFα and IFNγ, were also studied. TNFα and IFNγ are produced as a consequence of macrophage and T cell activation (McDevitt et al. 2004. Curr Hematol Rep 3:97-106). The appearance of BFU-E and CFU-E were quantified after culture with these cytokines, applied either alone or in combination.
BFU-E and CFU-E Progenitor Cell Assays. The progenitor cell (colony) assays were performed according to the standardized methods described previously (Martiney et al. 2000. Infection and Immunity 68:2259-2267) and protocols from StemCell Technologies (Vancouver; BC, Canada). Briefly, washed murine bone marrow cells were plated in sterile 35-mm dishes containing a methylcellulose-based medium and growth factors. The total number of bone marrow cells plated in duplicate culture dishes were as follows: 2×10^5 for CFU-E and 5×10^5 for BFU-E. MethoCult™ M3334 was utilized for the CFU-E and BFU-E colony assays. The media for CFU-E and BFU-E was volume adjusted by adding 1 part Isocove's MDM to 9 parts MethoCult™ M3334 to give final concentrations of the following components: 15% fetal bovine serum, 1% BSA, […] transferrin, […] insulin, 1% methylcellulose, 10^−4 M 2-mercaptoethanol, 2 mM L-glutamine and 3 units/ml erythropoietin. Each assay of different bone marrow progenitor cells was performed independently 3-6 times.

primary macrophages = assay: In vitro apoptosis, primary macrophages; assay type: cell-based, mouse; conditions: MIF 100 ng/ml; dependent on CD74 and CD44
Excerpt: Mice and Primary Cells. Wild-type (BALB/c or C57/B16), CD74-KO, (Shachar et al. (1996). Science 274:106-108), CD44-KO (Teder et al, (2002). Science 296:155-158), and MIF-KO (Bozza et al. (1999). J Exp Med 189:341-346), mice were bred at the Yale Animal Resource Center under strict, pathogen-free conditions. The KO strains were in genetically pure BALB/c or C57/B16 backgrounds (each at generation ≧N10). Mouse embryonic fibroblasts (MEFs) were obtained from 2 week-old embryos as described (Fingerle-Rowson et al. (2003). Proc Natl Acad Sci USA 100:9354-9359). […]
Apoptosis Studies. […] Cell lysates were collected, and caspase-3 activity analyzed using a colorimetric assay kit (R&D Systems). Cytoplasmic p53 content was analyzed as described previously (Mitchell et al. (2002). Proc Natl Acad Sci USA 99:345-350) by immunoblotting of mouse cytosolic fractions using a pair of anti-phospho-p53 (Ser15) (R&D Systems) and total anti-p53 antibodies (Cell Signaling); and for COS-7 cells, the anti-p53 (Ser15) and total anti-p53 antibodies (Cell Signaling). […] Mice were sacrificed 24 hrs after priming and the peritoneal macrophage cells collected and immediately analyzed for apoptosis by an ELISA that detects cytoplasmic oligonucleosomes (Roche Diagnostics). Primary macrophages also were immunostained by Alexa 488-conjugated, Annexin V (Invitrogen), and apoptotic cells enumerated by fluorescence microscopy.

[2] = test system: Friend murine erythroleukemia (MEL) cell line; assay: MEL cell cytodifferentiation and hemoglobin content; assay type: cell-based
Experimental: The specificity of this effect was verified by the application of a neutralizing, anti-MIF mAb.
Erythroid Progenitor Cell Lines. The Friend murine erythroleukemia (MEL) cell line was cultured in Dulbecco's modified Eagle's medium supplemented with 10% FBS. Differentiation was induced with dimethyl sulfoxide differentiation medium for 4 days as described (Terada et al. 1977. Proc. Natl. Acad. Sci. USA 74:248-252). Hemoglobin synthesis was assessed by cyto-centrifugation onto glass slides followed by staining with benzidine (Worthington), and by the hemoglobin kit from Sigma.

X4 (LAI) strain of HIV-1 = assay: HIV-1 replication in PHA-activated PBMC cultures (RT activity); assay type: cell-based; conditions: 50 ng/ml; p>0.05
Experimental: (§2) At indicated time points after infection, reverse transcriptase activity was measured in culture supernatants. Results are mean±SD. Whereas differences between MIF-treated and control cultures of ADA-infected PBMCs are highly statistically significant (p<0.01), differences between MIF-treated and control cultures of LAI-infected cells are not significant (p>0.05).
as §2, with “supernatants.” for “supernatants. Results are mean±SD.”, “(p>0.05) (FIG. 8).” for “(p>0.05).”

R5 (ADA) strain of HIV-1 = assay: as above; assay type: cell-based; conditions: 50 ng/ml; p<0.01
Experimental: as §2
as §2, with “supernatants.” for “supernatants. Results are mean±SD.”, “(p>0.05) (FIG. 8).” for “(p>0.05).”

B1: MIF: macrophage migration inhibitory factor; recombinant mouse or human MIF purified essentially free of endotoxin (protein)
chain: PMFIVNTNVPRASVPDGFLSELTQQLAQATGKPPQYIAVHVVPDQLMAFGGSSEPCALCSLHSIGKIGGAQNRSYSKLLCGLLAERLRISPDRVYINYYDMNAANVGWNNSTFA
HIV-1 replication (RT activity) (HIV-1ADA): significantly suppressed replication
BFU-E and CFU-E colony formation [1]: dose-dependently inhibited
protection from apoptosis (primary macrophages): almost complete
reduction of hemoglobin content ([2]; 20 ng/ml): 12%
reduction of hemoglobin content ([2]; 100 ng/ml): 20%
cytodifferentiation response (benzidine staining) ([2]; 200 ng/ml): decreased the cytodifferentiation response
X4 HIV-1 replication (RT activity) (X4 (LAI) strain of HIV-1): did not reduce replication
R5 HIV-1 replication (RT activity) (R5 (ADA) strain of HIV-1): reduced R5 HIV-1 replication

From patent US20100143379A1 (priority 2005, published 2010)
